Experimental data reported in PMC9829174.

Tested on: His6MBP-MP (TMV movement protein, 30 kDa) (Tobacco mosaic virus)
Experiment: EMSA
Conditions: 20 mM Tris-HCl pH 7.5, 35 mM KCl, 3.5 mM MgCl2, 5 U RNaseOUT, 10 ul, 30 min at 4 C; 6% native PAGE at 4 C, RNA blot detection; ssDNA/dsDNA competitors were …

Substance: PSTVd WT full-length transcript, folded
- K half: 36 nM
